The values below come from PMC8447495, “Dissecting Monomer-Dimer Equilibrium of an RNase P Protein Provides Insight Into the Synergistic Flexibility of 5’ Leader Pre-tRNA Recognition” (Frontiers in Molecular Biosciences, 2021).

The data set concerns the molecule itself. Description: NMR (preliminary experiments); highly purified P protein at 25°C.

B1: Thermotoga maritima RNase P protein (natural protein)
chain: TESFTRRERLRLRRDFLLIFKEGKSLQNEYFVVLFRKNGLDYSRLGIVVKRKFGKATRRNKLKRWVREIFRRNKGVIPKGFDIVVIPRKKLSEEFERVDFWTVREKLLNLLKRIEG
modifications: 15N, 13C-labeled
notes: RNase P protein component (rnpA gene) of Thermotoga maritima; numbering corresponds to UniProtKB Q9X1H4; Exists as monomer and dimer in equilibrium in solution; the preparation follows Zeng et al., 2018; also called T. maritima RNase P protein; source: E. coli BL21 Gold, M9 minimal media, purified (thrombin-treated lysate, denaturation-renaturation, 15S cation exchange); not shown: GST, …
With B1, the stoichiometry N (usually the number of molecules, sites or subunits per partner or assembly) stood at 2.
